Sequences and labels used below:
B1: Protein S100-G, P02633 (parent)
chain: MSAKKSPEELKGIFEKYAAKEGDPNQLSKEELKLLLQTEFPSLLKGPSTLDELFEELDKNGDGEVSFEEFQVLVKKISQ

The data set covers variants of B1. The note with it: Bos taurus; pH 7.1; 25 °C; Urea; CD; PIPES 20 mM; reversible: yes; structure 1IGV; whole UniProt chain shown.

Take MSAKKSPEELKGIFEKYAAKEGDGNQLSKEELKLLLQTEFPSLLKGPSTLDELFEELDKNGDGEVSFEEFQVLVKKISQ [P24G]: the “ddG of mutation (higher = less stable)” value came to 1.19 kcal/mol, the denaturant m value was 0.79 kcal/mol/M, the “denaturant midpoint (higher = more stable)” value (shortened to “denaturant midpoint”) was 4.7 M and the unfolding free energy was found to be 3.59 kcal/mol.
With MSAKKSPEELKGIFEKFAAKEGDPNQLSKEELKLLLQTEFPSLLKGPSTLDELFEELDKNGDGEVSFEEFQVLVKKISQ [Y17F], the “ddG of mutation (higher = less stable)” value was 1.19 kcal/mol, the denaturant m value amounted to 0.89 kcal/mol/M, the “denaturant midpoint” value is 4.1 M and the unfolding free energy came to 3.59 kcal/mol.
Consider MSAKKSPEELKGIFEKYAAKQGDPNQLSKEELKLLLQTEFPSLLKGPSTLDELFEELDKNGDGEVSFEEFQVLVKKISQ [E21Q], for which the “ddG of mutation (higher = less stable)” value is -0.48 kcal/mol, the denaturant m value turned out to be 0.91 kcal/mol/M, the “denaturant midpoint” value was determined as 5.6 M and the unfolding free energy was found to be 5.26 kcal/mol.

These data come from FireProtDB (doi:10.1111/j.1432-1033.1988.tb14214.x).
